# In the RNAGym collection of RNA variant scans (doi:10.7554/elife.80360):
# B1: CPEB3 Ribozyme (parent)
# chain: GGGGGCCACAGCAGAAGCGUUCACGUCGCGGCCCCUGUCAGAUUCUGGUGAAUCUGCGAAUUCUGCUGU
# Variants of: B1
# Experiment: self-cleavage, relative activity (ratio to wild type); higher = more cleavage; co-transcriptional
row,Variant,self-cleavage
1,U38A U44A,0.854
2,U38A U44G,0.875
3,G37A C45U,0.351
4,G37A C45G,0.281
5,U36C U38G,0.244
6,G37U C54G,0.168
7,G37U C54A,0.227
8,U36G G65A,0.207
9,U36G G65C,0.25
10,G37A U62A,0.225
11,G37A U62C,0.321
12,G37A U43G,0.359
13,G37A U43C,0.261
14,G37A U43A,0.261
15,U36G U55A,0.238
16,G37C U38C,0.201
17,G37C U38A,0.246
18,G37A G58C,0.344
19,G37C U64G,0.205
20,G37C U67C,0.282
21,G37U A52U,0.317
22,G37U A52G,0.282
23,U36C U61C,0.524
24,U36C U61A,0.557

row,Variant,self-cleavage
1,U36C U46C,0.987
2,U36C U46A,0.922
3,G37C G48U,0.288
4,G37C G48A,0.182
5,U38A G58A,0.848
6,U38A G58U,0.936
7,U36G G41C,0.278
8,U36G G41A,0.144
9,U36G G41U,0.373
10,U38A U53C,0.811
11,U38A A40U,0.692
12,U38A G48A,0.938
13,U38A G48U,0.957
14,U38A G48C,0.887
15,U38A U55G,0.758
16,U38A U55C,0.846
17,U38A U55A,0.779
18,G37A G47U,0.36
19,G37A G47A,0.312
20,G37A G47C,0.308
21,U36G U49C,0.146
22,U38A G41C,0.675
23,U36C U44C,0.688
24,U36C U44A,0.854

row,Variant,self-cleavage
1,U36C U44G,0.859
2,U36C G68C,0.991
3,G37U G56U,0.224
4,G37U G56A,0.28
5,G37U G56C,0.206
6,U36C U64G,0.762
7,U36C U64C,0.823
8,U36G A40C,0.236
9,U36G A40G,0.219
10,G37A G50U,0.28
11,G37A G50C,0.215
12,G37U U46G,0.263
13,G37U U46C,0.292
14,G37U U46A,0.416
15,U38A C39U,0.888
16,G37C G58C,0.277
17,G37C G58A,0.242
18,G37C G58U,0.353
19,U36G U64G,0.195
20,U36G U64C,0.188
21,U38A U64C,0.776
22,U36G U61A,0.341
23,G37C U53A,0.256
24,G37U U43C,0.236

row,Variant,self-cleavage
1,G37U U43A,0.209
2,G37C U49C,0.286
3,G37C U49G,0.234
4,U38A C57A,0.368
5,U38A C57U,0.35
6,U38A U49C,0.899
7,U38A U49G,0.962
8,U38A U49A,0.846
9,U36C U69C,1.05
10,U36C U69G,1.02
11,G37C C63A,0.261
12,G37C C63U,0.281
13,G37C C63G,0.25
14,U36G G50U,0.306
15,G37C A51U,0.171
16,G37C A51C,0.251
17,U36C U53A,0.767
18,U36C U53C,0.806
19,U36C U53G,0.544
20,G37A U55C,0.216
21,G37A U55A,0.275
22,G37C C57G,0.189
23,G37C C57A,0.242
24,G37C C57U,0.192

row,Variant,self-cleavage
1,U38A C54U,0.911
2,U36C U49G,0.848
3,U36C U49C,0.863
4,U36C U49A,0.923
5,G37U G58U,0.362
6,G37U G58C,0.279
7,U38A A42U,0.817
8,U36G C39U,0.218
9,U36G C39A,0.204
10,U36G C39G,0.24
11,G37C U55A,0.25
12,G37C U55G,0.236
13,G37C U55C,0.267
14,G37A A51U,0.285
15,U38A G47U,1
16,U38A G47C,0.937
17,U38A G47A,0.916
18,G37A U69C,0.498
19,U38A G50U,0.894
20,U38A G50C,0.911
21,U36C U62G,0.581
22,U36C U62A,0.654
23,G37U C57A,0.174
24,G37U C57U,0.264

row,Variant,self-cleavage
1,G37C G50U,0.188
2,G37C G50C,0.265
3,G37C G50A,0.257
4,G37U U53G,0.206
5,G37U U53C,0.252
6,U38A A51U,0.84
7,G37U U44A,0.213
8,G37U U44G,0.231
9,U36G U44A,0.246
10,U36G U44G,0.219
11,U36G C57G,0.109
12,G37C U43C,0.203
13,G37C U43A,0.264
14,U36G C66U,0.22
15,U36G C66G,0.167
16,U36G C66A,0.232
17,G37U U64C,0.283
18,G37U U64A,0.269
19,G37A U49G,0.37
20,G37U U62G,0.332
21,G37U U62A,0.227
22,G37A U61A,0.202
23,U36C U67G,0.949
24,U36G U69A,0.297

row,Variant,self-cleavage
1,U38A G56A,0.922
2,U36G A52G,0.296
3,U36G A52C,0.318
4,U36G A52U,0.271
5,G37U A42G,0.234
6,G37U A42U,0.246
7,G37U A42C,0.256
8,G37C C54A,0.201
9,G37C C54U,0.25
10,G37A G41C,0.192
11,G37A G41A,0.231
12,U36G C45G,0.251
13,U36G C45A,0.276
14,G37A A59G,0.36
15,G37A A59C,0.213
16,U38A C45G,0.902
17,U38A U61G,0.637
18,U38A U61A,0.782
19,U38A U61C,0.507
20,U38A G68U,0.939
21,U38A G68C,0.927
22,G37U C63A,0.239
23,G37U C63U,0.271
24,G37U C63G,0.312

row,Variant,self-cleavage
1,G37C U62A,0.212
2,G37C U62G,0.157
3,G37A U67A,0.389
4,G37A C66U,0.263
5,G37C A42U,0.234
6,G37C U61C,0.223
7,G37C U61A,0.201
8,G37C U61G,0.282
9,G37C U44C,0.187
10,G37U U49A,0.258
11,G37U U49G,0.327
12,G37U U49C,0.335
13,G37A U44G,0.223
14,G37A U44C,0.326
15,G37A C63U,0.364
16,G37A C63A,0.228
17,G37C G56U,0.237
18,G37C G56A,0.205
19,G37C C39U,0.268
20,G37C C39G,0.167
21,G37C C39A,0.215
22,G37U U38G,0.254
23,G37U U38A,0.321
24,G37U U38C,0.239

row,Variant,self-cleavage
1,U38C A40G,0.842
2,U38C A40C,0.77
3,U38C A40U,0.889
4,G37C C66A,0.222
5,G37C C66U,0.246
6,G37C C66G,0.177
7,U36G G48A,0.236
8,U36G G48C,0.266
9,G37A U53C,0.231
10,U36G U53C,0.267
11,G37U C45U,0.316
12,G37U C45G,0.286
13,U36G U38G,0.2
14,U36G U38C,0.248
15,G37C A52G,0.264
16,G37C A52C,0.216
17,G37U U61G,0.152
18,G37U U61C,0.21
19,G37U C66G,0.201
20,G37U C66A,0.267
21,G37C C45U,0.203
22,G37C C45A,0.168
23,G37U U55C,0.214
24,G37U U55G,0.173

row,Variant,self-cleavage
1,U38A U62A,0.648
2,U38A U62C,0.594
3,U36G A60U,0.181
4,G37U A40G,0.366
5,G37U A40C,0.205
6,U36G U62C,0.21
7,U38A U46G,0.943
8,U36G C63U,0.315
9,U36G C63G,0.181
10,U36G U43G,0.231
11,U36G U43C,0.268
12,U36G U43A,0.26
13,U36G G58A,0.24
14,U36G G58C,0.277
15,G37C A60C,0.236
16,G37C A60U,0.306
17,U36G U67A,0.0785
18,U36G U67C,0.239
19,G37A G65A,0.252
20,G37A G65U,0.325
21,G37A G65C,0.258
22,G37C G47U,0.209
23,G37C G47A,0.189
24,G37A U46A,0.375

row,Variant,self-cleavage
1,G37A U46C,0.338
2,G37A U46G,0.281
3,G37A C57G,0.241
4,G37A C57A,0.217
5,G37A C57U,0.247
6,G37U C39U,0.186
7,U36G A59C,0.182
8,U36G A59U,0.189
9,U36G A59G,0.238
10,U38A G65U,0.633
11,U38A G65C,0.578
12,U36G C54U,0.293
13,G37A A40G,0.334
14,G37A A40U,0.244
15,G37A A40C,0.261
16,G37U G65A,0.234
17,G37U G65U,0.265
18,U36G A42G,0.225
19,G37A C54A,0.235
20,G37A C54U,0.417
21,U38A U69A,0.98
22,G37C A40G,0.181
23,G37C A40U,0.267
24,G37C A40C,0.242

row,Variant,self-cleavage
1,U36G G56U,0.19
2,U36G G56A,0.246
3,U38A A59G,0.939
4,U38A A59C,0.497
5,U38A A59U,0.462
6,G37C G68U,0.245
7,G37C G68A,0.304
8,G37C G68C,0.245
9,U38A U67G,0.9
10,U38A U67A,0.941
11,G37A U64A,0.246
12,G37A U64G,0.254
13,G37C G41U,0.201
14,U38A C66U,0.917
15,U38A C66A,0.721
16,U38A C66G,0.764
17,G37A A42U,0.275
18,G37A A42C,0.293
19,U36G U46C,0.21
20,G37C,0.241
21,G37U,0.319
22,G37A,0.32
23,U36G G47A,0.252
24,U36G G47C,0.293

row,Variant,self-cleavage
1,G37U U69C,0.533
2,U36C U43A,0.787
3,U36C U43C,0.856
4,G37U G47U,0.365
5,G37U G47C,0.352
6,G37U A59U,0.197
7,G37U G50U,0.379
8,G37U G41A,0.244
9,G37U G41C,0.139
10,G37C A59C,0.183
11,G37C A59G,0.234
12,U38A U43C,0.9
13,U38A U43G,0.8
14,G37A G68U,0.385
15,G37A G68A,0.377
16,U38A A52U,0.856
17,U38A A52G,0.89
18,G37A A52G,0.268
19,G37A A52U,0.273
20,G37A U38C,0.34
21,G37A U38G,0.251
22,G37A U38A,0.291
23,U36G G37A,0.198
24,U36G G37C,0.22

row,Variant,self-cleavage
1,U36G G37U,0.199
2,G37U G68A,0.438
3,G37U G68C,0.42
4,U38A C63U,0.877
5,U38A C63G,0.67
6,U38A C63A,0.663
7,G37A G48U,0.251
8,G37C U46C,0.174
9,U38A A60C,0.418
10,U38A A60G,0.563
11,G37C G65U,0.237
12,G37C G65A,0.246
13,G37U U67A,0.293
14,G37U U67G,0.304
15,G37U U67C,0.317
16,G37A C39A,0.236
17,G37A C39U,0.372
18,G37A A60G,0.209
19,G37A G56C,0.232
20,G37U G48A,0.388
21,G37U G48U,0.322
22,G37C U69G,0.375
